Common to all, as to experiment: co-IP
The target in assay [1] is rbet1 (rat (endogenous in rat liver)) (UniProt Q62896).
Assay [2] has as its target membrin (rat (endogenous in rat liver)) (UniProt O35165).
Assay [3] addresses T1, Golgi SNARE of 28 kD (GOS-28) (rat (endogenous in rat liver), UniProt Q62931 1-250).
T1 sequence: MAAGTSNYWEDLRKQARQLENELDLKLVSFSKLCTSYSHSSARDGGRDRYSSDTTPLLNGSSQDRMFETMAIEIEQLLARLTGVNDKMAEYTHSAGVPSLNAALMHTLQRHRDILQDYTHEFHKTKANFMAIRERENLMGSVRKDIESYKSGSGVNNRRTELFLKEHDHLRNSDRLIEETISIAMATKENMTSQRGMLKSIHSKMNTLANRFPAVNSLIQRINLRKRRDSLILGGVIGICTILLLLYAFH

For another assay, the target named is T2, membrin (rat (endogenous in rat liver), UniProt O35165 1-212).
T2 sequence: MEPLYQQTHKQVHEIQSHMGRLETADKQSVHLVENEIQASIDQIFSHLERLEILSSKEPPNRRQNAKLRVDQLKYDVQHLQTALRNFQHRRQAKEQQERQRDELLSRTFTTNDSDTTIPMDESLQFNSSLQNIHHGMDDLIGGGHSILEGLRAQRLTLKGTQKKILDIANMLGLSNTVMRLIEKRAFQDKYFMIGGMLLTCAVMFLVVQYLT

The target in the next assay is T3, rbet1 (rat (endogenous in rat liver), UniProt Q62896 1-118).
T3 sequence: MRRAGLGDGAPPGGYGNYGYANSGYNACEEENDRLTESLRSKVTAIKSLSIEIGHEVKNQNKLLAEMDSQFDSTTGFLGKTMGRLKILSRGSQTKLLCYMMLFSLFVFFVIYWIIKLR

“membrin (from UniProt O35165 1-212) (natural protein)” returned an efficiency of coprecipitation (arbitrary units) in assay [1] of 308.

“rsec22b (from UniProt Q4KM74 1-215) (natural protein)” showed an efficiency of coprecipitation (arbitrary units) in assay [1] of 247.

In assay [1], “syntaxin 5, 31-kD form (degradation product of the 41-kD isoform) (domain or fragment)” returned an efficiency of coprecipitation (arbitrary units) of 139.

Molecule “rbet1 (from UniProt Q62896 1-118) (natural protein)” had an efficiency of coprecipitation (arbitrary units) in assay [2] of 115.

B1: syntaxin 5, 41-kD isoform (natural protein)
chain: MIPRKRYGSKNTDQGVYLGLSKTQVLSPATAINSSSDIAPLPTPVALVPSPPDTMSCRDRTQEFLSACKSLQSRQNGIQTNKPALHATRQCSEFTLMARRIGKDLSNTFAKLEKLTILAKRKSLFDDKAVEIEELTYIIKQDINSLNKQIAQLQDFVRAKGSQSGRHLQTHSNTIVVSLQSKLASMSNDFKSVLEVRTENLKQQRNRREQFSRAPVSALPLAPNNLGGGPIVLGGESRASRDVAIDMMDPRTSQQLQLIDEQDSYIQSRADTMQNIESTIVELGSIFQQLAHMVKEQEETIQRIDENVLGAQLDVEAAHSEILKYFQSVTSNRWLMVKIFLILIVFFIIFVVFLA
For B1, the efficiency of coprecipitation in assay [3] was 30 arbitrary units; with membrin it was 25 arbitrary units; with rbet1 it was 129 arbitrary units.

B2: syntaxin 5, 34-kD isoform (natural protein)
chain: MSCRDRTQEFLSACKSLQSRQNGIQTNKPALHATRQCSEFTLMARRIGKDLSNTFAKLEKLTILAKRKSLFDDKAVEIEELTYIIKQDINSLNKQIAQLQDFVRAKGSQSGRHLQTHSNTIVVSLQSKLASMSNDFKSVLEVRTENLKQQRNRREQFSRAPVSALPLAPNNLGGGPIVLGGESRASRDVAIDMMDPRTSQQLQLIDEQDSYIQSRADTMQNIESTIVELGSIFQQLAHMVKEQEETIQRIDENVLGAQLDVEAAHSEILKYFQSVTSNRWLMVKIFLILIVFFIIFVVFLA
With B2, the efficiency of coprecipitation is 134 arbitrary units in assay [3], 37 arbitrary units with membrin and 128 arbitrary units with rbet1.

The values above are taken from article PMC2133002 (The Journal of Cell Biology, 1998).
